According to US7105647:

Key:
[1] = target: AH receptor nuclear translocator (ARNT), full length (human) (UniProt P27540); test: yeast two-hybrid, lacZ reporter (FIG. 3)
[2] = target: AH receptor nuclear translocator (ARNT), full length (human) (UniProt P27540); test: yeast two-hybrid, Galacto-Light lacZ assay, 1 µM βNF
[3] = target: AH receptor nuclear translocator (ARNT), full length (human) (UniProt P27540); test: yeast two-hybrid, Galacto-Light lacZ assay, with vs without 1 µM βNF
[4] = target: Human CLOCK, full length (human) (UniProt O15516); test: cell-based or functional assay
Chain of Human CLOCK, full length (human) (O15516 whole entry): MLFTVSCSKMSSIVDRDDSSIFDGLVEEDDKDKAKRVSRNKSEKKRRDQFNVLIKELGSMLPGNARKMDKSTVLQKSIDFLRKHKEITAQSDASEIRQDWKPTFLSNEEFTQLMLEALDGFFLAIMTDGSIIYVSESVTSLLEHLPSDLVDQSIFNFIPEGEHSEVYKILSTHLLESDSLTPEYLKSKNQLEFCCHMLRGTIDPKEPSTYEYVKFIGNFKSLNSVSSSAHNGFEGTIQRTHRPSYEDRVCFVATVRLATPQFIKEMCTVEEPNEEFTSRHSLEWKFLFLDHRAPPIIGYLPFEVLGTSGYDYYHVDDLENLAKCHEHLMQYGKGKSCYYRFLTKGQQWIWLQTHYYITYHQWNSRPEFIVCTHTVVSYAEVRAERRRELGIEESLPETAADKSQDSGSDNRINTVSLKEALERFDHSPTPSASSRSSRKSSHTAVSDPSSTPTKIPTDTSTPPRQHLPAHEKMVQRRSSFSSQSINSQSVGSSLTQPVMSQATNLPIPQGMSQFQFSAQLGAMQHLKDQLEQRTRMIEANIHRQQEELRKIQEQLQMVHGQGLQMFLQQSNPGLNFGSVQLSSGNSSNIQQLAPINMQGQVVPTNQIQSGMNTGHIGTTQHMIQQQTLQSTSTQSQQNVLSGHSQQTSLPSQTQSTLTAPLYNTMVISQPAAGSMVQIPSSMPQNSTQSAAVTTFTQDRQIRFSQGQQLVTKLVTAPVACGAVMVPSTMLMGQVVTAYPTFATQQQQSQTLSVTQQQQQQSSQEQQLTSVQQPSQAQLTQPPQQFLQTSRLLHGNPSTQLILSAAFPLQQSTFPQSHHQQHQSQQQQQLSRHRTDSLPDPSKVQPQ

MOP1/HIF1α (human) = MOP1/HIF1α (human) (UniProt Q16665); test: cell-based or functional assay
Chain of MOP1/HIF1α (human) (Q16665 whole entry): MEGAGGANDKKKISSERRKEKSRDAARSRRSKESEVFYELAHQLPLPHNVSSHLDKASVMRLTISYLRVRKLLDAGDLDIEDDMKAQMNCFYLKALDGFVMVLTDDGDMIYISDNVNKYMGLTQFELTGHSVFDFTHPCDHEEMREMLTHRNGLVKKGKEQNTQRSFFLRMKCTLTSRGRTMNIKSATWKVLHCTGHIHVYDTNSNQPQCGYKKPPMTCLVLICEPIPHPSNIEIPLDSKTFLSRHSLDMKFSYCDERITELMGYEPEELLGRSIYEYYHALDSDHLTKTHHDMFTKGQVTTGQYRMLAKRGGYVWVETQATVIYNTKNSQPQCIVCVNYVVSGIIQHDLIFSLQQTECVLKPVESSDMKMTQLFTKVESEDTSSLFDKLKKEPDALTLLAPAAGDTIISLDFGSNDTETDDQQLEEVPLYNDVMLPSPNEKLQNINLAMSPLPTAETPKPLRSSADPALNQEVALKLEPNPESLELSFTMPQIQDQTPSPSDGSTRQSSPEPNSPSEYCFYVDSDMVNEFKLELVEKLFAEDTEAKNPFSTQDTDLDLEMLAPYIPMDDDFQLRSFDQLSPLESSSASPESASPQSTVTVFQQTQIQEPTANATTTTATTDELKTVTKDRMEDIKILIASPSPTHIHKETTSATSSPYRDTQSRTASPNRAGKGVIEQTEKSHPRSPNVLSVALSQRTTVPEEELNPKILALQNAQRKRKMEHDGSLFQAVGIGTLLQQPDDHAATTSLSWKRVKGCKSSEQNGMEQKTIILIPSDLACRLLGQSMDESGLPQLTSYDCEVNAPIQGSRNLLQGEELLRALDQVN

MOP2 (human) = MOP2 (human) (UniProt Q99814); test: cell-based or functional assay
Chain of MOP2 (human) (Q99814 other isoform, or with tags, fused parts or gaps limits assumed): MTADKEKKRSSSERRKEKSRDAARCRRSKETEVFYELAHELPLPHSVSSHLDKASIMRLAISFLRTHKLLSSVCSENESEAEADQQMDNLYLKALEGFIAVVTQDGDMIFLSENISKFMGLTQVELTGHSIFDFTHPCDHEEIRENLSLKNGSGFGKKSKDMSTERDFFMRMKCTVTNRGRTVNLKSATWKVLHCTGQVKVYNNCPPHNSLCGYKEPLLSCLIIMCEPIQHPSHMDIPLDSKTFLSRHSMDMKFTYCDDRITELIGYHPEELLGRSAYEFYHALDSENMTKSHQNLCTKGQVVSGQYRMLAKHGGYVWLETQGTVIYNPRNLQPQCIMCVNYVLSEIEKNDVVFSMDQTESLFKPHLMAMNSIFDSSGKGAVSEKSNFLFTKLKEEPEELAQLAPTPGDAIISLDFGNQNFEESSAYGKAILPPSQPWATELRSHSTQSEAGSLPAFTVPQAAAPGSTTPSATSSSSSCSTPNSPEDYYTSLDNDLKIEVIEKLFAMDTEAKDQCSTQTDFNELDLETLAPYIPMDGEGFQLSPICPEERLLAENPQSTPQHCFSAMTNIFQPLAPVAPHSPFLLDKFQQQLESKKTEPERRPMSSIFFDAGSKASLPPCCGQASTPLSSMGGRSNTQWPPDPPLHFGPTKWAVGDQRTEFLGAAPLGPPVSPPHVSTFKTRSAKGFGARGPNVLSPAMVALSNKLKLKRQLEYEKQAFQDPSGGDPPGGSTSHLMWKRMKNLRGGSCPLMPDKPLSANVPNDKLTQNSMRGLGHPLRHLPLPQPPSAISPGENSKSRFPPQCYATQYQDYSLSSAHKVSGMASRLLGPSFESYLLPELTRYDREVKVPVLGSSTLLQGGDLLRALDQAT

MOP4 (human) = MOP4 (human) (UniProt Q99743); test: cell-based or functional assay
Chain of MOP4 (human) (Q99743 other isoform, or with tags, fused parts or gaps limits assumed): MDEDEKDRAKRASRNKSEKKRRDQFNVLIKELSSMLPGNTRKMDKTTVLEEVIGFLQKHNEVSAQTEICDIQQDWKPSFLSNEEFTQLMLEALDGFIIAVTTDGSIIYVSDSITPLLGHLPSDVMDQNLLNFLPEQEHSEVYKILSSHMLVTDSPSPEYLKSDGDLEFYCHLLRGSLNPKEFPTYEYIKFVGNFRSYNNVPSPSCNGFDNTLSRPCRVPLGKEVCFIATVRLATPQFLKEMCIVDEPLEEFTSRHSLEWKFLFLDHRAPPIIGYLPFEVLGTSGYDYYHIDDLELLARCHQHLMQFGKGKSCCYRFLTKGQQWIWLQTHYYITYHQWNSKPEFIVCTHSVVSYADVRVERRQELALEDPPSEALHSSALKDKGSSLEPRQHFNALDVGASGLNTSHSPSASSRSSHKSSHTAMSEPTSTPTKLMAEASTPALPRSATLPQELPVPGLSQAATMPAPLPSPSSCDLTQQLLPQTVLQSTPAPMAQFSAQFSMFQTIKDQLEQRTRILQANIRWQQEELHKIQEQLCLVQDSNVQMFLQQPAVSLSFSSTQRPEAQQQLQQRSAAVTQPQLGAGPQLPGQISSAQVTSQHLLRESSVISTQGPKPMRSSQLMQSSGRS

Chain of AH receptor nuclear translocator (ARNT), full length (human) (P27540 whole entry): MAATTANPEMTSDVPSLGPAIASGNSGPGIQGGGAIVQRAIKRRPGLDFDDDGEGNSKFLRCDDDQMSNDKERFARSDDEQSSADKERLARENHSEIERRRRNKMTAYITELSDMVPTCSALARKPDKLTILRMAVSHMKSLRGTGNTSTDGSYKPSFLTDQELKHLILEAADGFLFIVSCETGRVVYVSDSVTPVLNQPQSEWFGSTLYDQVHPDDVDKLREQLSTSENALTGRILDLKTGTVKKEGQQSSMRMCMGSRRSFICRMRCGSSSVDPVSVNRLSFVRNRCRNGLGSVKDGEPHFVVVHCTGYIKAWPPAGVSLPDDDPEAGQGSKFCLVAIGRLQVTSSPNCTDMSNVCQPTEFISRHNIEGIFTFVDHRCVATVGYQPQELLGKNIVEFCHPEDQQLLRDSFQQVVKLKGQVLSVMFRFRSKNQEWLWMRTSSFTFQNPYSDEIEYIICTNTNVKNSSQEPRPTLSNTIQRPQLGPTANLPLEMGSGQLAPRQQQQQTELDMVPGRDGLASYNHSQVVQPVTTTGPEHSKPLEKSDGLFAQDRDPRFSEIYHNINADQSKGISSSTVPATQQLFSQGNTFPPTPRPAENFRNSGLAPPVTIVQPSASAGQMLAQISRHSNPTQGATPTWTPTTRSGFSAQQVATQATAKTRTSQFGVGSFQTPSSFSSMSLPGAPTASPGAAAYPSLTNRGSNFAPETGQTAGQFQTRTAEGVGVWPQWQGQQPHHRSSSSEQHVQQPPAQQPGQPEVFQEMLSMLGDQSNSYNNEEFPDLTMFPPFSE

Row | fold relative to the LexAARNT-AHR interaction [1] | fold above background (lacZ reporter activity) [2] | fold over the same pair in the absence of ligand [3] | luciferase reporter with three copies of the M34 element, COS-1 cells [4] | luciferase reporter with six copies of the M13 element, COS-1 cells (MOP1/HIF1α (human)) | luciferase reporter with six copies of the M13 element, COS-1 cells (MOP2 (human)) | luciferase reporter with three copies of the M34 element, COS-1 cells (MOP4 (human)) | Substance
1 | 14.7 times | 913 fold | 6.4 fold | – | – | – | – | LexAAHR (from UniProt P0A7C2 1-202; P30561 1-805)
2 | – | – | – | 5.6 fold | 3.3 fold | 3.6 fold | 3.3 fold | full-length MOP3 (cDNA form identified by the yeast interaction trap)
